Measured values reported in article PMC10290117 (2023).
Numbered stars: 1 amine (or outer) side, 2 acyl side, 3 side chain; on linkers, the order of the positions; unused ones are H or OH. Square brackets hold non-standard residues; d marks the D form. Ends that are not written are not given here. OSE = (2S)-2-amino-3-sulfooxy-propanoic acid, sulfo-serine, O=C([C@H](COS(=O)(=O)O)N[*:1])[*:2]; Abu(4-PO3H2) = N[C@@H](CCP(=O)(O)O)C(=O)O; pS = N[C@@H](COP(=O)(O)O)C(=O)O

T1: HLA-B*0702, biotinylated recombinant HLA class I molecule of the Alpha assay (human, biotin)
T1 chain: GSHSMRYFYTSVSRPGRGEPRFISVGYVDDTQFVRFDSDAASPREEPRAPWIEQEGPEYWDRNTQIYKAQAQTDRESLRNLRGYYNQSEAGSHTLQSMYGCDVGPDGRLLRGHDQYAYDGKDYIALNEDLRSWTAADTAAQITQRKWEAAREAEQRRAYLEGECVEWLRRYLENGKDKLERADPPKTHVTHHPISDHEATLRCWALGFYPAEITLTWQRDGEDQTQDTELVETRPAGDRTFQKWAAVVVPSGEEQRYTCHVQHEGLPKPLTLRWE


Biological target: T1, HLA-B*0702, biotinylated recombinant …

| Kd [nM] | Binder |
| --- | --- |
| 27 | EPRSPSHSM [MLL_(747–755) peptide EPRSPSHSM] |
| 54.3 | LPASPAHQL [DOT1L_(998–1006) peptide LPASPAHQL] |
| 33.9 | EPR[Abu(4-PO3H2)]PSHSM [E7P-MLL_(747–755) peptide EPR(E7P)PSHSM] |
| 56.7 | EPR[pS]PSHSM [pMLL_(747–755) phosphopeptide EPR(pS)PSHSM] |
| 309 | LPA[pS]PAHQL [pDOT1L_(998–1006) phosphopeptide LPA(pS)PAHQL] |
| 26.2 | EPR[OSE]PSHSM [OSE-MLL_(747–755) peptide EPR(OSE)PSHSM] |
